Patent US20260184815A1 (published 2026)
Numbering of substitutions follows the chain as printed.

B1: M197-G10 (Fab, V domains shown)
VH: EVQLLESGGGLVQPGGSLRLSCAASGFTFSVYAMRWVRQAPGKGLEWVSSIYPSGGKTWYADSVKGRFTISRDNSKNTLYTLQMNSLRAEDAVYYCAYRRTGIPRRDAFDIWGQGTMVTVSS
VL: DIQMTQSPSTLSASVGDRVTITCRASQSISSWLAWYQQKPGKAPNLLIYKASTLESGVPSRFSGSGSGTEFTLTISSLQPDDFATYYCQQYNTYWTFGQGTKVEIK
B2: M201-F11 (Fab, V domains shown)
VH: EVQLLESGGGLVQPGGSLRLSCAASGFTFSHYIMMWVRQAPGKGLEWVSGIYSSGGITVYADSVKGRFTISRDNSKNTLYLQMNSLRAEDTAVYYCAYRRSGIPRRDAFDIWGQGTMVTVSS
VL: B1 VL with P80Q, D81P, F83D, A84F, T85A, Y86T, C88Y, Q89C
B3: M198-A01 (Fab, V domains shown)
VH: B2 VH with H31P, I33T, M35I, G50S, Y52S, I57M, V59P, S101T
VL: B1 VL
B4: M209-C12 (Fab, V domains shown)
VH: EVQLLESGGGLVQPGGSLRLSCAASGFTFSHYLMTWVRQAPGKGLEWVSYISPSGGHTIYADSVKGRFTISRDNSKNTLYLQMNSLRAEDTAVYYCARVGRGIAARSRTSQLDYWGQGTLVTVSS
VL: DIQMTQSPGTLSLSPGERATLSCRTSQFVNSNYLAWYQQTPGQAPRLLIYGASSRATGIPDRFSGTGYGTDFTLTISRLEPEDYGTYYCQQSSRTPWTFGQGTRVEIK
B5: M209-D03 (Fab, V domains shown)
VH: B4 VH with Q111F, L112F, Y114Q
VL: B4 VL
B6: M6-G05 (Fab, V domains shown)
VH: EVQLLESGGGLVQPGGSLRLSCAASGFTFSRYRMVWVRQAPGKGLEWVSSIYPSGGMTAYADSVKGRFTISRDNSKNTLYLQMNSLRAEDTAVYYCARDAVGIGDAFDIWGQGTMVTVSS
VL: DIQMTQSPSSLSASVGDRVTITCRASQSISTYLNWYQLKPGKAPKLLIYNAFSMERGVPSTISGSGSGTDFTLTISSLQPEDFATYYCQQSYTTPTTFGQGTKVEIK
notes: HC as printed runs into CH1
B7: M9-A08 (Fab, V domains shown)
VH: EVQLLESGGGLVQPGGSLRLSCAASGFTFSAYEMWWVRQAPGKGLEWVSYIGSSGGSTSYADSVKGRFTISRDNSKNTLYLQMNSLRAEDTAVYYCTGGNSSSFDAFDIWGQGTMVTVSS
VL: DIQMTQSPSSLSASVGDRVTVTCRASQRISTYLNWYQQKPGKAPKLLISGASSLQSGVPSRFSGSGSGTDFTLTISSLQPDDFATYYCQQSYNTPRTFGQGTKVEIR
notes: HC as printed runs into CH1
B8: M8-D05 (Fab, V domains shown)
VH: EVQLLESGGGLVQPGGSLRLSCAASGFTFSLYNMNWVRQAPGKGLEWVSSISPSGGFTDYADSVKGRFTISRDNSKNTLYLQMNSLRAEDTAVYYCARDLDLGILDYWGQGTLVTVSS
VL: DIQMTQSPSFVSASVGDRVTITCRASQDISSWLVWYQQKPGKGPKLLIYDASNLQSGVPSRFSGGGSGTHFTLTISSLQPEDFATYYCQQADGFPLTFGGGTKVEMK
notes: HC as printed runs into CH1
B9: M8-H04 (Fab, V domains shown)
VH: EVQLLESGGGLVQPGGSLRLSCAASGFTFSGYWMGWVRQAPGKGLEWVSSISSSGGWTQYADSVKGRFTISRDNSKNTLYLQMNSLRAEDTATYYCARDDEIAAGGAFDIWGQGAMVTVSS
VL: DIQMTQSPSSLSASIGDRVTITCRASQYISTYLNWYEQKPGKAPKLLIYGTSSLQSGVPSRFSGSGSGTEFSLTISSLQPEDFATYYCQQSFTTPFTFGQGTKLEIK
notes: HC as printed runs into CH1
B10: M8-C04 (Fab, V domains shown)
VH: EVQLLESGGGLVQPGGSLRLSCAASGFTFSYYPMQWVRQAPGKGLEWVSYIYPSGGLTSYADSVKGRFTISRDNSKNTLYLQMNSLRAEDTAVYYCARLFYGSGSVGFEYWGQGTLVTVSS
VL: QSALTQPPSVSVSPGQTASITCSGDKLGDKYTSWHQQKPGQSPVLVIYQDSKRPSGIPERFSGSNSGNTATLTISGTQAMDEADYYCQAWDSSTVFGGGTRLTVL
notes: HC as printed runs into CH1
B11: M9-A03 (Fab, V domains shown)
VH: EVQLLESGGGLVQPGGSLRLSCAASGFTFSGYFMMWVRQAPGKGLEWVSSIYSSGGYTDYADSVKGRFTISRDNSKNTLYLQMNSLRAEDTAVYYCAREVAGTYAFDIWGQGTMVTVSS
VL: DIQMTQSPSSLSASLGDRVTITCRASQNIDIYLNWYQQTPGKAPKLLIYGAYNLQSGVPSRFSGSGSGTDFTLTISSLQPEDFGTYYCQQSYGTPVFGQGTKLEIK
notes: HC as printed runs into CH1
B12: M6-A08 (Fab, V domains shown)
VH: EVQLLESGGGLVQPGGSLRLSCAASGFTFSPYPMQWVRQAPGKGLEWVSSISSSGGMTEYADSVKGRFTISRDNSKNTLYLQMNSLRAEDTAVYYCARDDYGGKGGAFDIWGQGTMVTVSS
VL: DIQMTQSPSSLSASVGDRVTITCRASQRISFYLNWFQQKPGKAPNLLIYGASSLQSGVPSRFSGSGSGTDFTLTISSLQPKDFGTYYCQQTFSTPNTFGQGTKLEIK
notes: HC as printed runs into CH1
B13: M8-G09 (Fab, V domains shown)
VH: EVQLLESGGGLVQPGGSLRLSCAASGFTFSLYEMLWVRQAPGKGLEWVSVIYPSGGYTDYADSVKGRFTISRDNSKNTLYLQMNSLRAEDMAVYYCARSFSGFGEIDYWGQGTLVTVSS
VL: DIQMTQSPSSLSASVGDTVTITCRASQGVSYYLAWFQQKPGKAPKSLIYGASSLQSGVPSKFSGSGSGTVFTLTISSLQPDDFATYYCQQYNTYPPTFGQGTRLDIK
notes: HC as printed runs into CH1
B14: M6-A06 (Fab, V domains shown)
VH: EVQLLESGGGLVQPGGSLRLSCAASGFTFSLYQMTWVRQAPGKGLEWVSGIWPSGGFTDYADSVKGRFTISRDNSKNTLYLQMNSLRAEDTAVYYCARVSTAVADNDYWGQGTLVTVSS
VL: DIQMTQSPSSLSASVGDSVTISCRASQSISMYLNWYQHKPGKAPKLLIYGTSSLQSGVPSRFSGSGPGGTDFTLTISSLQPEDFATYYCQQSYSAPWTFGQGTKVEIK
notes: HC as printed runs into CH1
B15: M6-D03 (Fab, V domains shown)
VH: B14 VH with L31K, Q33F, T35G, G50V, W52G, P53S, F57W, D59S
VL: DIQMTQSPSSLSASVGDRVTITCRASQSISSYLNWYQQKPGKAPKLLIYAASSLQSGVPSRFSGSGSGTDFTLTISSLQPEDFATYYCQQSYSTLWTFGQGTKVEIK
notes: HC as printed runs into CH1
B16: M9-C08 (Fab, V domains shown)
VH: EVQLLESGGGLVQPGGSLRLSCAASGFTFSHYGMVWVRQAPGKGLEWVSYIVPSGGLTYYADSVKGRFTISRDNSKNTLYLQMNSLRAEDTAVYYCARVDYTGDGLGYWGQGTLVTVSS
VL: DIQMTQSPSSLSASVGDRVTITCRASQSISIYVNWYQQKPGKAPNLLIFAASSLQRGVPSRFSGSGSGADFTLTISSLQPEDFATYYCQQSFSTPLTFGGGTKVEIK
notes: HC as printed runs into CH1
B17: M8-E06 (Fab, V domains shown)
VH: EVQLLESGGGLVQPGGSLRLSCAASGFTFSHYFMTWVRQAPGKGLEWVSSIVPSGGMTQYADSVKGRFTISRDNSKNTLYLQMNSLRAEDTAVYYCARDSYSSSWFDIWGQGTMVTVSS
VL: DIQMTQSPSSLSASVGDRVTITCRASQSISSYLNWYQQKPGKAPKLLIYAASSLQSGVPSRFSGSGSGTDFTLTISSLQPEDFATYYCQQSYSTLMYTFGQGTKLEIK
notes: HC as printed runs into CH1
B18: M6-D08 (Fab, V domains shown)
VH: EVQLLESGGGLVQPGGSLRLSCAASGFTFSRYHMVWVRQAPGKGLEWVSSISPSGGWTNYADSVKGRFTISRDNSKNTLYLQMNSLRAEDTAMYYCAREMATIAGQFDPWGQGTLVTVSS
VL: DIQMTQSPSSLSASVGDRVTITCRASQSISSYLNWYQQKPGKAPKLLIYGASSLQSGVPSRFSGSGSGTDFTLTISSLQPEDSATYYCQQSYTRWTFGQGTKVEIK
notes: HC as printed runs into CH1; LC amber q (WYqQK) written as Q
B19: M6-D09 (antibody, V domains shown)
VH: EVQLLESGGGLVQPGGSLRLSCAASGFTFSFYYMVWVRQAPGKGLEWVSVIYPSGGITVYADSVKGRFTISRDNSKNTLYLQMNSLRAEDTAVYYCARDKWAVMPPYYYYAMDVWGQGTTVTVSS
VL: DIQMTQSPSSLSASVGDRVTITCRASQSIRNYLNWYQQKPGKAPNLLIYAASTLQSGVPARFSGSGSGTDFTLTISSLQPEDFATYYCQQLSGYPHTFGQGTKLEIK
notes: also called M06-D09; 559A-M06-D09

Each binder was assayed against T1, human plasma kallikrein (human, UniProt P03952 20-390; P03952 391-638) (assay: cell-based or functional assay).
T1 sequence (P03952 20-390, chain 1 of 2): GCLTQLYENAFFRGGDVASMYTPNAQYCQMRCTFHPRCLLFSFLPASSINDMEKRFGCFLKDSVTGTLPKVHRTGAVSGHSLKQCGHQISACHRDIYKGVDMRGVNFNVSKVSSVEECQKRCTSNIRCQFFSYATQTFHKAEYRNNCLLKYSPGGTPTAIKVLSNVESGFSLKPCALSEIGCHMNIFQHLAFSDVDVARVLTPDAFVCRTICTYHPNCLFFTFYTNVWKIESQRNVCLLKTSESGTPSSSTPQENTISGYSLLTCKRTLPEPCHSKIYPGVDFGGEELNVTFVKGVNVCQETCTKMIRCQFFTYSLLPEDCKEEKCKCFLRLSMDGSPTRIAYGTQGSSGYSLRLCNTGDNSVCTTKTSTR
T1 sequence (P03952 391-638, chain 2 of 2): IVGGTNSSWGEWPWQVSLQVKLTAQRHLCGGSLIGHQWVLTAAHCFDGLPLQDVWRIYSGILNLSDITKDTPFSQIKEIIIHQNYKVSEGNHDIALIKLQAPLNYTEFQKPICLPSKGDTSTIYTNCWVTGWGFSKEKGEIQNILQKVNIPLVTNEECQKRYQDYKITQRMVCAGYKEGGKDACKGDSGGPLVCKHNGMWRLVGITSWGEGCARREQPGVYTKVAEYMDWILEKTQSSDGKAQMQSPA

Going from B1 to B2, the “% inhibition at 10 nM” value falls from 67.6% to 15.7%.

With B3 the “% inhibition at 10 nM” value was 13.8%.

Target: T1, human plasma kallikrein
Experiment: cell-based or functional assay
Remark: another data set of the same source

First: B4
Second: B5
The “% inhibition at 10 nM” value of the first is higher: 93.4% for the first, 80.4% for the second.

What follows are binders tested against T2, human plasma kallikrein (human, UniProt P03952 20-390; P03952 391-638) (assay: ELISA, biotinylated pKal signal over streptavidin background).
T2 construct: also called pKal; Human pKal
From the text: Abbreviations used: “T/B” is the ELISA signal obtained using of the “target” (biotinylated plasma kallikrein) divided by the ELISA signal of the “background” (streptavidin); both of which were coated on microtiter plates, “nd” is not determined. The symbol “q” refers to the amber suppressible stop codon (TAG), which is translated as glutamine (Q) in strains of E. coli such as the TG1 cells that were used to express the Fab fragments.
T2 sequence (P03952 20-390, chain 1 of 2): as the sequence (P03952 20-390, chain 1 of 2) above
T2 sequence (P03952 391-638, chain 2 of 2): as the sequence (P03952 391-638, chain 2 of 2) above

Compared with B6, B7 is lower in “ELISA (T/B)” value: 18.5 T/B for the first, 5.5 T/B for the second.

Compared with B8, B9 is lower in “ELISA (T/B)” value: 11.9 T/B for the first, 3.3 T/B for the second.

Going from B10 to B11, the “ELISA (T/B)” value falls from 44.7 T/B to 14.4 T/B.

Compared with B12, B13 is higher in “ELISA (T/B)” value: 23.4 T/B for the first, 28.2 T/B for the second.

Going from B14 to B15, the “ELISA (T/B)” value rises from 11.7 T/B to 15.5 T/B.

Compared with B16, B17 is lower in “ELISA (T/B)” value: 10.9 T/B for the first, 8.8 T/B for the second.

With B18 the “ELISA (T/B)” value was 16 T/B.

The binders below were run against T3, pKal catalytic domain Mutant 2 (human, UniProt P03952 391-638, limits assumed) (assay: enzyme inhibition, equilibrium Ki,app).
T3 construct: domain: catalytic domain; Expressed in Pichia pastoris, purified by IMAC; not shown: His tag fusion
T3 sequence (P03952 other isoform, or with tags, fused parts or gaps mutant limits assumed): as the sequence (P03952 391-638, chain 2 of 2) above, with R161A, Q163A, Y165A, T168A, R170A counted along it

B19 was tested, and the “fold increase of Ki,app against the wild type catalytic domain” value was roughly 5 fold.
